Measured values reported in patent US20230265151A1, “GIP/GLP1 CO-AGONIST COMPOUNDS” (priority 2020, published 2023).
Changes are numbered by the printed parent chain. *1 amine or outer side, *2 acyl side, *3 side chain or, on linkers, in order; H or OH if unused. Where no end group is shown, it is not given here. Side-chain parts run from the residue outwards. [ ]: non-standard residue; d: D form. The star is where a group is joined. Decanoyl(10-(4-HOOC-PhO)) = O=C(O)c1ccc(OCCCCCCCCCC(=O)*)cc1; αMePhe(2-F) = C[C@](N)(Cc1ccccc1F)C(=O)O; γGlu = O=C(O)[C@H](CCC(=O)[*:2])N[*:1]; αMeY = C[C@](N)(Cc1ccc(O)cc1)C(=O)O; αMeL = CC(C)C[C@](C)(N)C(=O)O; Orn = NCCC[C@H](N)C(=O)O; AEEA = NCCOCCOCC(=O)O; Aib = CC(C)(N)C(=O)O

T1: human GIP receptor (human, UniProt P48546 22-466)
T1 sequence (looked up): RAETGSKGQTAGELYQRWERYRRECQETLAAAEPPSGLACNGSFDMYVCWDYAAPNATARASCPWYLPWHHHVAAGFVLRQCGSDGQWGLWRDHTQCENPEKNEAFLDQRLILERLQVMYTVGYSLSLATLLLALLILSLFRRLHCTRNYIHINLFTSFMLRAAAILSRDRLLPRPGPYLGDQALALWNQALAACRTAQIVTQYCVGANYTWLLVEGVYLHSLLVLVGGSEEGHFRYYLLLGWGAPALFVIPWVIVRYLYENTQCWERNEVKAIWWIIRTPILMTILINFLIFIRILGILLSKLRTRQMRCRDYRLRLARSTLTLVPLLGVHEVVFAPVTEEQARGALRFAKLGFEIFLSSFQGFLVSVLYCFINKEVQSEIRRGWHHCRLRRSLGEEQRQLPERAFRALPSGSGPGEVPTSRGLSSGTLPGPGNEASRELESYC

T2: human GIP receptor (human) (UniProt P48546)
T2 sequence (looked up): T1 sequence (looked up)

B1: Example 376 (peptide)
peptide: YXEGTXTSDYXIXLDXIAQXKFIXXLIKGGPSSGAPPPS
modifications: Y-Aib-EGT-αMeF(2F)-TSDY-Aib-I-αMeL-LD-Orn-IAQ-Aib-K((2-[2-(2-Amino-ethoxy)-ethoxy]-acetyl)-(γ-Glu)-(10-(4-carboxyphenoxy)decanoyl))FI-(D-Glu)-αMeY-LIK((2-[2-(2-Amino-ethoxy)-ethoxy]-acetyl)-(γ-Glu)-(10-(4-carboxyphenoxy)decanoyl))GGPSSGAPPPS-NH2
B2: Example 359 (peptide)
peptide: YXEGTXTSDXXIXLDXKAQXEFIXXLIEGGPSSGAPPPSK
modifications: Y-Aib-EGT-αMeF(2F)-TSD-4Pal-Aib-I-αMeL-LD-Orn-K((2-[2-(2-Amino-ethoxy)-ethoxy]-acetyl)2-(γ-Glu)-CO-(CH2)12-CO2H)AQ-Aib-EFI-(D-Glu)-αMeY-LIEGGPSSGAPPPSK((2-[2-(2-Amino-ethoxy)-ethoxy]-acetyl)2-(γ-Glu)-CO-(CH2)12-CO2H)-NH2
B3: Example 374 (peptide)
peptide: B2 peptide with X10Y
modifications: Y-Aib-EGT-αMeF(2F)-TSDY-Aib-I-αMeL-LD-Orn-K((2-[2-(2-Amino-ethoxy)-ethoxy]-acetyl)-(γ-Glu)-(10-(4-carboxyphenoxy)decanoyl))AQ-Aib-EFI-(D-Glu)-αMeY-LIEGGPSSGAPPPSK((2-[2-(2-Amino-ethoxy)-ethoxy]-acetyl)-(γ-Glu)-(10-(4-carboxyphenoxy)decanoyl))-NH2
B4: Example 362 (peptide)
peptide: B2 peptide
modifications: Y-Aib-EGT-αMeF(2F)-TSD-4Pal-Aib-I-αMeL-LD-Orn-K((2-[2-(2-Amino-ethoxy)-ethoxy]-acetyl)-(y-Glu)-(10-(4-carboxyphenoxy)decanoyl))AQ-Aib-EFI-(D-Glu)-αMeY-LIEGGPSSGAPPPSK((2-[2-(2-Amino-ethoxy)-ethoxy]-acetyl)-(γ-Glu)-(10-(4-carboxyphenoxy)decanoyl))-NH2
B5: Example 377 (peptide)
peptide: B2 peptide with X10Y, K17I, E21K
modifications: Y-Aib-EGT-αMeF(2F)-TSDY-Aib-I-αMeL-LD-Orn-IAQ-Aib-K((2-[2-(2-Amino-ethoxy)-ethoxy]-acetyl)-(γ-Glu)-(10-(4-carboxyphenoxy)decanoyl))FI-(D-Glu)-αMeY-LIEGGPSSGAPPPSK((2-[2-(2-Amino-ethoxy)-ethoxy]-acetyl)-(γ-Glu)-(10-(4-carboxyphenoxy)decanoyl))-NH2

target: human GLP-1 receptor (human, UniProt P43220 24-463); experiment: cell-based or functional assay

Binder	cAMP EC50 (1.0% HSA) [nM]	cAMP Emax (1.0% HSA) [%]
B1	419	121
Y[Aib]EGT[αMePhe(2-F)]TSDV[Aib]I[αMeL]LD[Orn]IAQ[Aib]K([AEEA-AEEA-γGlu-Decanoyl(10-(4-HOOC-PhO))])FI[dE][αMeY]LIEGGPSSGAPPPSK([AEEA-AEEA-γGlu-Decanoyl(10-(4-HOOC-PhO))])-NH2 [Example 383]	92.2	102
B2	40.5	95.1
B3	39.7	
B4	29.9	
B5	178	110
Y[Aib]EGT[αMePhe(2-F)]TSDV[Aib]I[αMeL]LD[Orn]K([AEEA-AEEA-γGlu-Decanoyl(10-(4-HOOC-PhO))])AQ[Aib]EFI[dE][αMeY]LIEGGPSSGAPPPSK([AEEA-AEEA-γGlu-Decanoyl(10-(4-HOOC-PhO))])-NH2 [Example 380]	28	94.5
Y[Aib]EGT[αMePhe(2-F)]TSDV[Aib]I[αMeL]LD[Orn]IAQ[Aib]K([AEEA-γGlu-Decanoyl(10-(4-HOOC-PhO))])FI[dE][αMeY]LIK([AEEA-γGlu-Decanoyl(10-(4-HOOC-PhO))])GGPSSGAPPPS-NH2 [Example 382]	204	

target: human glucagon receptor (human, UniProt P47871 26-477); experiment: cell-based or functional assay
Sequence (P47871 26-477): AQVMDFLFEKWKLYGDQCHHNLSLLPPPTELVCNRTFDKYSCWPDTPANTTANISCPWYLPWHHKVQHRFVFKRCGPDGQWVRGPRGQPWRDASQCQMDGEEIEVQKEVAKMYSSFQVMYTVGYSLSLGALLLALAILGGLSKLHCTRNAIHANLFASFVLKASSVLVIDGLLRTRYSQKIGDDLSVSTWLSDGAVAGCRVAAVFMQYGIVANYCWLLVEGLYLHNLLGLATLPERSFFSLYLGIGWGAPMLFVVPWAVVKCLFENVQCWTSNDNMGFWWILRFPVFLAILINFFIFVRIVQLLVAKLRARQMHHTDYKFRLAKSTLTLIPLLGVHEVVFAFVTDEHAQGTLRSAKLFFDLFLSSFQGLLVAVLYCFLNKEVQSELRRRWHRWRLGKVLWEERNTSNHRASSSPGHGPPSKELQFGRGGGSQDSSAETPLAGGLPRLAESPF

Binder	cAMP EC50 (1.0% HSA) [µM]
B1	> 9.95
Y[Aib]EGT[αMePhe(2-F)]TSDV[Aib]I[αMeL]LD[Orn]IAQ[Aib]K([AEEA-AEEA-γGlu-Decanoyl(10-(4-HOOC-PhO))])FI[dE][αMeY]LIEGGPSSGAPPPSK([AEEA-AEEA-γGlu-Decanoyl(10-(4-HOOC-PhO))])-NH2 [Example 383]	> 9.95
B2	> 9.95
B3	> 9.95
B4	> 9.95
B5	> 9.95
Y[Aib]EGT[αMePhe(2-F)]TSDV[Aib]I[αMeL]LD[Orn]K([AEEA-AEEA-γGlu-Decanoyl(10-(4-HOOC-PhO))])AQ[Aib]EFI[dE][αMeY]LIEGGPSSGAPPPSK([AEEA-AEEA-γGlu-Decanoyl(10-(4-HOOC-PhO))])-NH2 [Example 380]	> 9.95
Y[Aib]EGT[αMePhe(2-F)]TSDV[Aib]I[αMeL]LD[Orn]IAQ[Aib]K([AEEA-γGlu-Decanoyl(10-(4-HOOC-PhO))])FI[dE][αMeY]LIK([AEEA-γGlu-Decanoyl(10-(4-HOOC-PhO))])GGPSSGAPPPS-NH2 [Example 382]	> 9.95

target: T1, human GIP receptor; experiment: cell-based or functional assay

Binder	cAMP EC50 (1.0% HSA) [nM]	cAMP Emax (1.0% HSA) [%]
B1	39.6	88.3
Y[Aib]EGT[αMePhe(2-F)]TSDV[Aib]I[αMeL]LD[Orn]IAQ[Aib]K([AEEA-AEEA-γGlu-Decanoyl(10-(4-HOOC-PhO))])FI[dE][αMeY]LIEGGPSSGAPPPSK([AEEA-AEEA-γGlu-Decanoyl(10-(4-HOOC-PhO))])-NH2 [Example 383]	10.7	82.8
B2	1.58	81
B3	1.96	88.8
B4	0.936	
B5	17.5	79.4
Y[Aib]EGT[αMePhe(2-F)]TSDV[Aib]I[αMeL]LD[Orn]K([AEEA-AEEA-γGlu-Decanoyl(10-(4-HOOC-PhO))])AQ[Aib]EFI[dE][αMeY]LIEGGPSSGAPPPSK([AEEA-AEEA-γGlu-Decanoyl(10-(4-HOOC-PhO))])-NH2 [Example 380]	9.23	93.5
Y[Aib]EGT[αMePhe(2-F)]TSDV[Aib]I[αMeL]LD[Orn]IAQ[Aib]K([AEEA-γGlu-Decanoyl(10-(4-HOOC-PhO))])FI[dE][αMeY]LIK([AEEA-γGlu-Decanoyl(10-(4-HOOC-PhO))])GGPSSGAPPPS-NH2 [Example 382]	18.7	87.2

target: T2, human GIP receptor (human); experiment: cell-based or functional assay

Binder	cAMP EC50 [nM]	cAMP Emax [%]
B1	0.0281	99.8
Y[Aib]EGT[αMePhe(2-F)]TSDV[Aib]I[αMeL]LD[Orn]IAQ[Aib]K([AEEA-AEEA-γGlu-Decanoyl(10-(4-HOOC-PhO))])FI[dE][αMeY]LIEGGPSSGAPPPSK([AEEA-AEEA-γGlu-Decanoyl(10-(4-HOOC-PhO))])-NH2 [Example 383]	0.0147	100
B2	0.0261	103
B3	0.0135	96.2
B4	0.0131	
B5	0.0205	92.8
Y[Aib]EGT[αMePhe(2-F)]TSDV[Aib]I[αMeL]LD[Orn]K([AEEA-AEEA-γGlu-Decanoyl(10-(4-HOOC-PhO))])AQ[Aib]EFI[dE][αMeY]LIEGGPSSGAPPPSK([AEEA-AEEA-γGlu-Decanoyl(10-(4-HOOC-PhO))])-NH2 [Example 380]	0.0209	100
Y[Aib]EGT[αMePhe(2-F)]TSDV[Aib]I[αMeL]LD[Orn]IAQ[Aib]K([AEEA-γGlu-Decanoyl(10-(4-HOOC-PhO))])FI[dE][αMeY]LIK([AEEA-γGlu-Decanoyl(10-(4-HOOC-PhO))])GGPSSGAPPPS-NH2 [Example 382]	0.0302	97.6

target: hGLP-1R (Homo sapiens, UniProt P43220); experiment: cell-based or functional assay

Binder	cAMP EC50 [nM]	cAMP Emax [%]
B1	0.539	104
Y[Aib]EGT[αMePhe(2-F)]TSDV[Aib]I[αMeL]LD[Orn]IAQ[Aib]K([AEEA-AEEA-γGlu-Decanoyl(10-(4-HOOC-PhO))])FI[dE][αMeY]LIEGGPSSGAPPPSK([AEEA-AEEA-γGlu-Decanoyl(10-(4-HOOC-PhO))])-NH2 [Example 383]	0.306	105
B2	1.18	104
B3	0.269	106
B4	0.34	109
B5	0.356	100
Y[Aib]EGT[αMePhe(2-F)]TSDV[Aib]I[αMeL]LD[Orn]K([AEEA-AEEA-γGlu-Decanoyl(10-(4-HOOC-PhO))])AQ[Aib]EFI[dE][αMeY]LIEGGPSSGAPPPSK([AEEA-AEEA-γGlu-Decanoyl(10-(4-HOOC-PhO))])-NH2 [Example 380]	0.176	96.2
Y[Aib]EGT[αMePhe(2-F)]TSDV[Aib]I[αMeL]LD[Orn]IAQ[Aib]K([AEEA-γGlu-Decanoyl(10-(4-HOOC-PhO))])FI[dE][αMeY]LIK([AEEA-γGlu-Decanoyl(10-(4-HOOC-PhO))])GGPSSGAPPPS-NH2 [Example 382]	0.619	101

target: human glucagon receptor (human) (UniProt P47871); experiment: cell-based or functional assay

Binder	cAMP EC50 [µM]
B1	> 9.95
Y[Aib]EGT[αMePhe(2-F)]TSDV[Aib]I[αMeL]LD[Orn]IAQ[Aib]K([AEEA-AEEA-γGlu-Decanoyl(10-(4-HOOC-PhO))])FI[dE][αMeY]LIEGGPSSGAPPPSK([AEEA-AEEA-γGlu-Decanoyl(10-(4-HOOC-PhO))])-NH2 [Example 383]	> 9.95
B2	> 10.1
B3	> 9.95
B4	> 10.1
B5	> 9.95
Y[Aib]EGT[αMePhe(2-F)]TSDV[Aib]I[αMeL]LD[Orn]K([AEEA-AEEA-γGlu-Decanoyl(10-(4-HOOC-PhO))])AQ[Aib]EFI[dE][αMeY]LIEGGPSSGAPPPSK([AEEA-AEEA-γGlu-Decanoyl(10-(4-HOOC-PhO))])-NH2 [Example 380]	> 9.95
Y[Aib]EGT[αMePhe(2-F)]TSDV[Aib]I[αMeL]LD[Orn]IAQ[Aib]K([AEEA-γGlu-Decanoyl(10-(4-HOOC-PhO))])FI[dE][αMeY]LIK([AEEA-γGlu-Decanoyl(10-(4-HOOC-PhO))])GGPSSGAPPPS-NH2 [Example 382]	> 9.95
